From the nanobody polyreactivity screen of Harvey et al. (2022)

Assay: yeast display, Sf9 membrane polyspecificity reagent, FACS + sequencing; frameworks hold sequencing errors
Summary of the method: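 A synthetic nanobody library was expressed on Saccharomyces cerevisiae BJ5465 by galactose induction for 36–48 hours. The library was stained for 1 hour at 4 °C with 10% biotinylated, detergent-solubilized Sf9 membrane reagent and enriched with streptavidin microbeads before FACS. Low and high (top ~1%) gates were set on anti-HA fluorescence for expression and streptavidin fluorescence for reagent binding, and each polyreactivity label reflects the gate of origin.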

| Sequence | polyreactivity (PSR sort gate) |
| --- | --- |
| QVQLVDSGGGLVQAGGSLRLSCPASGIIIARNTMGWYRQAPGKERELVAAISTRGTTTYYADSVKGRFTISRDNAKNTVYLQMNSLKPEDTAVYSCAAFRVHTDRYNYWGQGTQVTVSS | high polyreactivity |
| QVQLVESGGGLVQAGGSLRLSCAASGRIFYPYAMGWYIQAPGKEREFVATIRARCGDSTSYADSVKGRFTISRDIAKNTVYLQMNSLKPEDTAVYYCAALFYTYRWRYYVYHMDYWGQGTQVTVSS | low polyreactivity |
| QVQLVESGGGLVQAGGSLRFSCAASGTFDYYDMGWYRQAPGKEWELVAGITSGGSTDYADSEKGRFTISRDNAKNTVYLQMNSLKPEDTAVYYCAADPFRIHTYDYWGQGTQVTVSS | low polyreactivity |
| QVQLVESGGGLLQAGGSLRLSCAASGGIKSENAMGWYRQAPRKERELVAVITDGGSTNYADSVKGRFTISRDNAKNTVYLQMNSLKPEDTAVYYCAKDTYLELWLDPLYDYWGQGTQVTVSS | low polyreactivity |
| QVQLVESGGGLVQAGGSLRLSCAASGSTFYGYAMGWYRQAPGKERELVAAITRSGGSTYYADSVKGRFTISRDNAKYTVYLQMNSLKPEDTEVYYCNKYGYKGGVGYDYWGQGTQVTVSS | high polyreactivity |
| QVQLVESGGGLVQAGGSLRLSCAASGSISSYAMGWYRQAPGKERELVASITWHGGGTYYADSVKGRFTISRDNAKNTVYLQMNSLKPEDTAVYYCNADYVYSWYEPLKYNYWGQGTQVTVSS | low polyreactivity |
| QVQLVESGGGLVQAGGSLRLSCAASGFTFHYYTMGWYRQAPGKERELVASINYSGGRTYYADSVKGRFTISRDNAKNTVYLQMNSLKPEDTAVYYCNARYKSTYYYWGLGTQVTVSS | high polyreactivity |
| QVQLVESGGGLVQAGGSLRLSCAASGNTFHYYTMGWYRQAPGKERELVAAITRSAGRTYYADSVKGRFTISRDNAKTTVYLQMNSLKPEDTAVYYCATERERTMGYWGQGTQVTVSS | high polyreactivity |
| QVQLVESGGGLVQAGGSLRLSCAASGFTFSNYAMGWYRQAPGKERELVAAISFRTGRTYYADSVKWRFTISRDNAKNTVFLQMNILKPEDTAVYYCAVQPYHSYLHNYWGQGTQVTVSS | high polyreactivity |
| QVQLVESGGGLVQAGGSLRLSCAASGGIFDYNAMGWYRQAPGKERELVAAITNGGSTNYADSVKGRFTISRDNAKNSVYLQMNSLKPEDTAVYYCATGYFYDYWGQGTQVTVSS | low polyreactivity |
| QVQLVESGGGLVQAGGSLRLSCAASGFIYKINAMGWYRQAPGKERELVARITSGGRTNYADSVKGRFTISRDNAKNTVYLQMDSLKPEDTAVYYCAARYLAYGPTGYLYGYNYWGQGTQVTVSS | high polyreactivity |
| QGQLVESGGGLVQAGGSLRLSCAASGGIFDSNAMGWYRQARGKERELVAAISDSGGSTYYADSVKGRFTITRDNAKNTVYLQMNSLKTDDTAVYDCAADSDYHFLNYRFGMDYWGQGTQVTVSS | low polyreactivity |
| QVQLVESGGGLLQAGGSQSLSCAASGIISFSNTMGWYIQAPGKERELVAAIDSGGDDTYYADSVKGRFTISRDNAKNSVYLQMNCLKAEDSAVDYCAKDAFFTEIAIRDQIISHHYYWGHGTQVTVSS | low polyreactivity |
| QVQLVESGGGLVQAGGSLRLICAASGSIFYNNDMGWYRQAPGKERELVAAINWNGGSTYYADSVKGRFTISRDNAKNTVYLQMNSLKPEDTAVYYCNAEPFWYNYGYDDDYWGQGTQVTVSS | high polyreactivity |
| QVQLVESGGGLVQAGGSLRLSCAASGFIFRYYAMGWYRQAPGKERELVAAISYSGGSTYYADSVKGRFTISRDTAKNTVYLQMNSLKPEDTAVYYCAAVLRTRDHPQPNYVYWGQGTQVTVSS | high polyreactivity |
| QVQLVESGGGLVQAGGSLRLSCAASGITFKPNTMGWYRQAPGKERELVAAIDWSGSSTYYADSVKGRFTISRDNAKNTVYLHMNSLKPEDTAVYYCAADEYEYFWSYDYWGQGTQVTVSS | low polyreactivity |
| QVQLVESGGGLVQAGGSLRLTCAASGRTFRNYAMGWYRQAPGKEREMVAAISRSGGITYYADSVKGRFTISRDNAKNTVYLQMNSLKPEDTAVYYCAARHSYQGPGTYPMYYWGQGTQVTVTS | high polyreactivity |
| QVQLVESGGGLDQAGGSLRLSCAASGSTFWVNTMGWYRQAPGKERELVAGITSNGGSTSYADSVKGRFTISRDNAKNSVYLQMNSLKREDTAVYYCNADTYPDYWAYLYDYWGQGTQVTVSS | low polyreactivity |
| QVQLVESGGGLVQAGGSLRLSCAASGSIFSFYAMGWYRQAPGKERELVASITRRGGSTSYADSVKGRFTISRDNAKNTVYLQMNSLKPEDTAVYYCASESKFISVLRVGYYYVKFDYWGQGTQVTVSS | high polyreactivity |
| QLQLVESGGGLVQAGGSLRLSCAASGSTFRNNAMGWYRQAPGKERELVAAISRGGGSTYYADSVKWRFTISRDNAKNTVYLQMNSLKPDDTAVYYCARRPTGIYDYWGQGTQVTVSS | high polyreactivity |
| QVQLVESGGGLVQAGGSLRLSCAAYGSTFVSNAMGWSRPAPGKERELVAAISSSGGSTYYADSVKGRFTISRDTATNTVYLQMNSLKPEDTAVYYCVDYYNGYTHNYNYWGQGTQVTVSA | low polyreactivity |
| QVQHVESGGGLDQAGGRLRLSCAASGFTFARNAMGWYRQAPGKDRELVAAINRSGGSTYYADSVKGRFTISRDNAKNTVYLQMNSLKPEDTAVYYCNAPYAQFTSGYDYWGQGTQVTVSS | high polyreactivity |

| Sequence | polyreactivity (PSR sort gate) |
| --- | --- |
| QVQLVESGGGLVQAGGSLRLSCAASGRIFWYYAMGGYRQAPGKERELVASITSGGRTKYADSVKGRFTISRDNAKNTVYLQMNSLKPEDTAVYYCAARLLIDYHADWWVAYDYWGQGTQVTVSS | low polyreactivity |
| QVQHVESGGGLVQAGGSLRLSCAASGSTFSYKVMGWYRQAPGKERELVAAISQSGGSTYYADSVKGRFTISRDNAKNTVYLHMNSLKPEDTAVYYCAAERRYYYGWGSFDYWGQGTQVTVSS | low polyreactivity |
| QVQLVDSGGGLVQEGGRLRLSCAASGSIYDQYDMGWYRQAPGKERELVAAISNRGGCTYYADSVKGRFTISRDNAKNTVYLQMNSLKPEDTAVYYCAARKYWGYGTRYFYWGQGTQVTVSS | high polyreactivity |
| QVQLVESGGGLVQAGGSLRLSCAASGNTLDAYTMGWYRQAPGKERELVAAISRGGTRTYYADSVKGRFTISRDNAKNTVYLQMNSLKPEDTAVYYCNKQFPYSKYYIMGYWGQGTQVTVSS | high polyreactivity |
| QVQLVESGGGLVQAGGSLRLSCAASGRTFYWYAMGWYRQAPGKERELVAGISSGGGTYYADSVKGRFTISRDNAKNTVYLQMNSLKPEDTAVYYCAAAWENIWVWQEYIEYDYWGQGTQVTVSS | low polyreactivity |
| HVQLVESGGGLVQAGGSLRLSCAASGTFTYYAMGWYRQAPGKERELVAAITWRGGNTYYADSVKGRFTISRDNAKNTVYLQMNSLKPEDTAVYYCATDYWYIRWGGYYWGQGTQVTVSS | low polyreactivity |
| QVQLVESGGGLVQAGGSLRLICAASRRTYYSNAMGWYRQAPGKERELVAASTSTDDSTYYADSVKGRFTISRDNAKNTVYLQMNSLKPEDTAVYYCNTDGLIAIRGLWWVEYDYWGQGTQVTVSS | low polyreactivity |
| QVQLVESGGGIVQAGGSLRLSCASSGSIFYWYAMGWYRQAPGKERELVAAISRSGGSTYYADSVKGRFTISRDNAKNTVYLQMNSLKPEDTAVYYCATELSYRHGYWGQGTQVTVSS | high polyreactivity |
| QVQLVESGGGLVQAGGSLRLSCAASGFIFVSYAMGWYRQAPGKERELVAAIDRIGGITYYADSVKGRFSISRDNAKNTVYLQMNSLKPEDTAVYYCAAAARYATVRVGREYYWGQGTQVTVSS | low polyreactivity |
| QVQLVESGGGLVQAGGSLRLSCAASGRILSVYAMGWYRQAPGKERELVAAIEYSGGSTNYADSVKGRFTISRDNAKHTVYLQMNSLKPEDTAVYYCNREGGAIAWRYLLEYLYSWGQGTQVTVSS | low polyreactivity |
| QVQLVESGGGIVQAGGSLRLSCAASGSTFRGYAMGWYRQAPGKETELVAAITSRGTRTYYADSVKGRFTISRDNSKNTVSLQMNSLKPEDTAVYYCNVVSDIRLYYRYAYDYWGQGTQVTVSS | high polyreactivity |
| QVQLVESGGGLVQAGGSLRLSCAASGSTFKKYVMGWYRQAPGKERELVAAISSTGRTNYADSVKGRFTISRDNAKNTVYLQMNSLKPEDTAVYYCAKRYRKYSLGPPGNDYWGQGTQVTVSS | high polyreactivity |
| QVQLVESGGRLVQAGGSLRLSCAASGSTFAVYAMGWYRQAPGKERELVAAINRSGDSTYYADSVKGRFTISRDNAKNTVYLQMNSLKPEDTAVYYCAVSAWTRSHALYYWGQGTQVTVSS | high polyreactivity |
| QVQLVESGGGLVQAGGSLRLSCAASGLSFSGNVMGWYRQAPGKERELVAAIDRSGGSTYYADSVKGRFTISRDNAQKTVYLQMNSLKPEDTAVYYCAVSSYPNHSRSWDDYWGQGTQVTVSS | low polyreactivity |
| QVQLVESGGGLVQAGGSLRLSCAASGRIFFLNAMGWYRQAPGKERELVATISWTGGSTYYADSVKGRFTISRDNAKNTVDLQMTSLKPEDTAGYYCAKDGTNWGHAFDSWGQGTEVTVSS | low polyreactivity |
| QVQLVESGGGLDQAGGSLRLSCAASGSTFYAYTMGWYRQAPGKERELVARISGRGGSTYYADSVKGRFTISRDNAKNTVFLQMYSLKPEDTAVYFCASRVYGSYRGIQYGYWGQGTQETVSS | high polyreactivity |
| QVQLVESGGGLVQAGGSLRLSCAASGSISGGYAMGWYRQAPGKERELVAVIDSGGSTYYADSVKGRFTISRDNAKNTVYLQMNSLKPEDTAVYYCNADYSSQDNFDYWGQGTQVTVSS | low polyreactivity |
| QVQLVESGGGLVQAGGILSLSCAASGIISIYYVMGWYRQAPGKERELVAAITSSGARTYYADSVKGRFTISRDNAKNTVYLQMNSLKPEDTAVYYCAAKAVHLAGYDYWGQGTQVTVSS | high polyreactivity |
| QVQLVESGGGLVQAGGSLRLSCAASGITFPYYAMGWSRQAPGKERELVAAISSSGGSSYYADSVKGRFTISRDNAKNTVYLQMNSLKPEDTAVYYCATRNTRFHLDYWGQGTQVTVSS | high polyreactivity |
| QVQLVESGGGLVQAGGSLRLSCAACGFIFSSNAMGWYTPAPGNERELVAAITGGGGRTRYADSVKGRFTISRDNAKNSVYLQMNSLKPEDTAVYYCNTVYYVYYRSYSYKGDYWGQGTQVTVSS | high polyreactivity |
| QVQLVESGGGLVEAGGSLRLRCAASGISYRYYAMGWYRQAPGKERELVAAITYRGGTTYYADSVKGRFKISRDKEKNTVYLQMNSLKPEDTAVYYCATDVNSYGYYYWGQGTQVTVSS | high polyreactivity |
